Assay [1] concerns the target T1, KIAA0807 (PDZ domain)-GST fusion protein (human, UniProt Q6P0Q8 1104-1192).
T1 construct: also called K807; KIAA807; not shown: glutathione S-transferase encoded by vector pGEX-3X (Pharmacia)
T1 sequence: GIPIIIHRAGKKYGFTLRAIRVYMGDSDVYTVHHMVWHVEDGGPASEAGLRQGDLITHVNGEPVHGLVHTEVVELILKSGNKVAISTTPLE
The experiment in a line: G assay competition against 1 uM BLR-1 20-mer.

For assay [2], the target named is T2, GST-41.8 kD protein (KIAA0751) PDZ domain fusion protein (Mus musculus (Mouse), UniProt Q9EQZ7 682-763).
T2 construct: also called 41 kd; hypoth; not shown: glutathione S-transferase encoded by vector pGEX-3X (Pharmacia)
T2 sequence: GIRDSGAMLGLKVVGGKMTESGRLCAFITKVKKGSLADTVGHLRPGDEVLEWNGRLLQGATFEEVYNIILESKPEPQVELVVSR
The experiment in a line: G assay competition on plate-bound GST-41.8kD; blocked ligand: 20 uM biotinylated CD49E peptide.

For assay [3], the target named is T3, GST-PSD95 fusion protein (PDZ domains 1-3) (human, UniProt P31016 56-395 (rat entry)).
T3 construct: also called human post-synaptic density protein 95; not shown: glutathione S-transferase encoded by vector pGEX-3X (Pharmacia)
As to the kind of experiment: G assay: biotinylated peptide on plate-bound GST-PDZ fusion, OD 450 nm.

Assay [4] addresses T1, KIAA0807 (PDZ domain)-GST fusion protein. As to the kind of experiment: G assay competition against 10 uM DOCK2 20-mer; 8-mer DOCK2 peptide competing against 10 uM DOCK2 20-mer.
For assay [5], the target named is T3, GST-PSD95 fusion protein (PDZ domains …). As to the kind of experiment: G assay competition on plate-bound GST-PSD95, competitor at 100 uM; blocked ligands: biotinylated Clasp 2 and CD46 (20 uM), Fas and KV1.3 (10 uM) peptides.
The target in assay [6] is T1, KIAA0807 (PDZ domain)-GST fusion protein. The experiment in a line: G assay competition against 10 uM DOCK2 20-mer; acetyl-STDL competing against 10 uM DOCK2 20-mer.

Ends that are not written are not given here. * marks the point of attachment. Biotin = O=C1N[C@H]2[C@H](CS[C@H]2CCCCC(=O)*)N1

T3 sequence (P31016 other isoform, or with tags, fused parts or gaps): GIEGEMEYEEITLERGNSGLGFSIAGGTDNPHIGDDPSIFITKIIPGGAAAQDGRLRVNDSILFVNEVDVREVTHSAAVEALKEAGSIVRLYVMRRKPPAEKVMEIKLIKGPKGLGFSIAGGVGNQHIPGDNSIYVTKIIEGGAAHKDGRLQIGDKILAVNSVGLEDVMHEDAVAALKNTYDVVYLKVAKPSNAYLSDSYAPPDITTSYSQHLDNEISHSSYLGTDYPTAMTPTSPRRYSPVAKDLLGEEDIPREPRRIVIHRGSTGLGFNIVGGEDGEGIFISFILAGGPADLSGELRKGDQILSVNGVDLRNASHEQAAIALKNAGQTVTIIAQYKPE

In assay [1], NATSLTTF (also called BLR-1 8-mer) [8-mer peptide corresponding to the C-terminus of BLR-1] came in with a half-inhibitory concentration (IC50) of over 100 µM.

With ATSDA (also called 5-mer CD49E peptide ATSDA) [CD49E 5mer], the binding result in assay [2] is recorded as “binds”.

B1: 30 (peptide)
peptide: Biotin-TIYENLAPVTTFGKTIA
notes: Not the same peptide as m50 (AA19L, ending GYIA); the key gives AA55L for peptide 30; also called CD148
Regarding B1, the binding result in assay [3] is recorded as “no binding”.

Take PDSLSTDL (also called DOCK2 8-mer) [8-mer peptide corresponding to the C-terminus of DOCK2]: in assay [4], the IC50 worked out at 250 µM.

TTNNNPNSAVNIKKIFTDV (also called KV13 peptide) [unlabeled 19-mer having the sequence of the C-terminus of KV1.3 (non-biotinylated AA33L)]: in assay [5], the binding result is “binds”.

B2: Fas (CD95) 8-mer competitor peptide RNEIQSLV (unlabeled) (peptide)
peptide: RNEIQSLV
notes: also called FAS-8-mer; 8-mer peptide corresponding to the C-terminus of CD95 (Fas)
As to B2, the binding result in assay [5] is on record as “binds”.

For the molecule REVKFTSL [CD46 8-mer competitor peptide REVKFTSL (unlabeled)], the binding result in assay [5] is “binds”.

In the case of Ac-LTTF (it is an N-acetyl tetrapeptide) [acetyl-LTTF], the IC50 in assay [1] came out at 1 µM.

Consider Ac-STDL (it is an N-acetyl tetrapeptide) [acetyl-STDL], for which the IC50 in assay [6] is under 250 µM.

What is called IC50 is the concentration needed to halve the response being measured. A high value points to weaker potency.

Source of the values: patent publication US20050037969A1 (ARBOR VITA, published 2005).
